Here are results for one substance from patent US20070065882.

This data set deals with PKCβII in mouse brain (UniProt P68404).
PKCβII in mouse brain, sequence (P68404 other isoform, or with tags, fused parts or gaps): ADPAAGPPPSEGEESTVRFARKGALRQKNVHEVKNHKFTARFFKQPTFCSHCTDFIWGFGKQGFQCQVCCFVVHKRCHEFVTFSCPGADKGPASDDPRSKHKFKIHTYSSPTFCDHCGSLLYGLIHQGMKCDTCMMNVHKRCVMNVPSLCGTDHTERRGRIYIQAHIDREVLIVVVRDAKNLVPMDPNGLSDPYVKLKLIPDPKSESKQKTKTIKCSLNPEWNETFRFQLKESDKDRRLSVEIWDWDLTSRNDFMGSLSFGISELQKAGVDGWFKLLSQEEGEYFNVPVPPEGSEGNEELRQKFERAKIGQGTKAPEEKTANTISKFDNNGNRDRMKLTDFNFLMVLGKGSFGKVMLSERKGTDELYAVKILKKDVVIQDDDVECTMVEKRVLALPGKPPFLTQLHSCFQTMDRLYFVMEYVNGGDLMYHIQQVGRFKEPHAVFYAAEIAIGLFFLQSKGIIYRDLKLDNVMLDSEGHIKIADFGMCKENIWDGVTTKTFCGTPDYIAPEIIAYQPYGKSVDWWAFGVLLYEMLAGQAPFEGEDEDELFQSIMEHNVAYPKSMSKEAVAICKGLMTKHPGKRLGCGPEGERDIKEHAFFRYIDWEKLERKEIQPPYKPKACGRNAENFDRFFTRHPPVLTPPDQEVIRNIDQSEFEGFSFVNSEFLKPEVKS

“recombinant human AChE-R, 'readthrough' variant of acetylcholinesterase”: the “PKC activity in brain homogenates (PKC assay kit, Upstate Biotechnology)” value is recorded as “Note the elevation of PKC activity in the different brain regions in the AChE-R transgenics as compared to FVB/N controls”.
